Columns and labels:
[1] = tested on: human Shh-N (cysteine residue at the 24th position up to the glycine residue at the 197th position of human Shh), E. coli recombinant, histidine tag excised with enterokinase
[2] = tested on: Shh-(24-45), 22-mer peptide of amino acids 24 to 45 of human Shh, biotin at the C-terminal lysine
Sequence of Shh-(24-45), 22-mer peptide of amino acids 24 to 45 of human Shh, biotin at the C-terminal lysine (chain, as listed by the source): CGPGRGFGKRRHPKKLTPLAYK

Substance	radioactivity of [14C] palmitic acid in the band of Shh-N after SDS-PAGE (HHAT activity) [1]	radioactivity of [3H] palmitic acid added to the substrate peptide against the peptide's concentration (reaction time 1 hour) [2]	radioactivity of [3H] palmitic acid added to the substrate peptide against the reaction time (10 uM peptide) [2]
human HHAT (human hedgehog acyltransferase) with a C-terminal FLAG-Tag, crude enzyme solution from transfected HEK293 cells	Only when the human HHAT crude enzyme solution and the Shh-N were reacted, a band having a radioactivity was recognized in the vicinity of the molecular weight of 21 kDa corresponding to the Shh-N	–	–
human HHAT expressed with the Bac-to-Bac baculovirus system (HHAT enzyme solution of Example 5)	–	the activity was increased depending on the concentration (FIG. 3)	the activity was increased for 2 hours (FIG. 4)
